Data reported in publication PMC10455477, “The Roles of Coenzyme A Binding Pocket Residues in Short and Medium Chain Acyl-CoA Synthetases” (Life, 2023).
Numbering of substitutions follows the chain as printed. Names and notes keep the numbering of the source.

B1: MacsMa (Methanosarcina acetivorans C2A) (protein)
chain: MTSLLSQFVSKTDFESYEDFQENFKILVPENFNFAYDVVDVYARDSPEKLAMIWCDDYGNEKIFTFKDLKYYSDKAANFFVKHGIGKGDYVMLTLKSRYDFWYCMLGLHKLGAIAVPATHMLKTRDIVYRIEKAGLKMIVCIAEDDVPEQVDEAHAECGDIPLKKAKVGGDVLEGWIDFRKELEESSPIFERPTGEVSTKNEDICLVYFSSGTAGFPKMVEHDNTYPLGHILTAKYWQNVEDDGLHYTVADSGWGKCVWGKLYGQWIAGCAVFVYDYDRFEAKNMLEKASKYGVTTFCAPPTIYRFLIKEDLSHYNFSTLKYAVVAGEPLNPEVFNRFLEFTGIKLMEGFGQTETVVTIATFPWMEPKPGSIGKPTPGYKIELMDRDGRLCEVGEEGEIVINTMEGKPVGLFVHYGKDPERTEETWHDGYYHTGDMAWMDEDGYLWFVGRADDIIKTSGYKVGPFEVESALIQHPAVLECAITGVPDPVRGQVIKATIVLTKDYTPSDSLKNELQDHVKNVTAPYKYPRIIEFVPELPKTISGKIRRVEIRDKDQSQ
B2: MacsMa (Methanosarcina acetivorans C2A; K464A) (protein)
chain: B1 chain with K461A
notes: recombinant, E. coli Rosetta Blue (DE3) placI; His-Trap purified
B3: MacsMa (Methanosarcina acetivorans C2A; K522R) (protein)
chain: B1 chain with K519R
notes: as for B2
B4: MacsMa (Methanosarcina acetivorans C2A; K464R) (protein)
chain: B1 chain with K461R
notes: as for B2
B5: MacsMa (Methanosarcina acetivorans C2A; G462A) (protein)
chain: B1 chain with G459A
notes: as for B2

What was measured:
MacsMa = biological target: T1, MacsMa (Methanosarcina acetivorans, UniProt Q8TLW1); test: inhibition of propionyl-adenylate synthetase activity; format: biochemical; conditions: read-out: % inhibition at 15 mM
T1 construct: gene MA_2912; recombinant, E. coli Rosetta Blue (DE3) placI; His-Trap purified

AcsMt = system: T2, AcsMt; test: hydroxamate assay, A540; format: biochemical, Methanothermobacter thermautotrophicus; conditions: acetate and MgATP saturating; 65 °C; apparent Km
T2 construct: gene acs; recombinant, E. coli Rosetta Blue (DE3) placI; His-Trap purified
Source text: hydroxamate assay, A540 on AcsMt

purified protein [1] = substrate: CC(C)(COP(=O)(O)OP(=O)(O)OC[C@H]1O[C@@H](n2cnc3c(N)ncnc32)[C@H](O)[C@@H]1OP(=O)(O)O)[C@@H](O)C(=O)NCCC(=O)NCCS; test: purified protein; conditions: 2-methylbutyrate and ATP saturating, pH 7.5, 55 °C, apparent Km
purified protein [2] = substrate: CCC(=O)O; test: purified protein; conditions: no CoA, ATP saturating, 55 °C, apparent Km
purified protein [3] = substrate: Nc1ncnc2c1ncn2[C@@H]1O[C@H](COP(=O)(O)OP(=O)(O)OP(=O)(O)O)[C@@H](O)[C@H]1O; test: purified protein; conditions: 2-methylbutyrate and CoA saturating, pH 7.5, 55 °C, apparent Km
[4] = substrate: CC(C)(COP(=O)(O)OP(=O)(O)OC[C@H]1O[C@@H](n2cnc3c(N)ncnc32)[C@H](O)[C@@H]1OP(=O)(O)O)[C@@H](O)C(=O)NCCC(=O)NCCS; test: 2-methylbutyryl-CoA synthetase activity; format: biochemical, Methanosarcina acetivorans; conditions: 2-methylbutyrate and ATP saturating, pH 7.5, 55 °C, apparent Km
Source text: 2-methylbutyryl-CoA synthetase activity on MacsMa

Molecule	Km [4]	kcat [4]	other results
CC(C)(COP(=O)(O)OP(=O)(O)OC[C@H]1O[C@@H](n2cnc3c(N)ncnc32)[C@H](O)[C@@H]1OP(=O)(O)O)[C@@H](O)C(=O)NCCC(=O)NCCS [CoA]	–	–	inhibition at 15000 µM (MacsMa): ~40%
CC(C)(COP(=O)(O)OP(=O)(O)OC[C@H]1O[C@@H](n2cnc3c(N)ncnc32)[C@H](O)[C@@H]1O)[C@@H](O)C(=O)NCCC(=O)NCCS [3′-dephospho CoA]	–	–	Km (AcsMt): 2160 ± 500 µM
B1	–	–	Km (purified protein [1]): 4090 ± 450 µM; kcat (purified protein [1]): 2.15 ± 0.1 s⁻¹; Km (purified protein [2]): 29100 ± 300 µM; kcat (purified protein [2]): 10.67 ± 1.34 s⁻¹; Km (purified protein [3]): 4210 ± 110 µM
B2	2190 ± 180 µM	0.55 ± 0.03 s⁻¹	–
B3	7180 ± 290 µM	1.07 ± 0.02 s⁻¹	–
B4	1380 ± 140 µM	0.46 ± 0.1 s⁻¹	–
B5	2090 ± 60 µM	0.41 ± 0.01 s⁻¹	–
